Experimental data from publication PMC11578312, “Proximity‐Unlocked Luminescence by Sequential Enzymatic Reactions from Antibody and Antibody/Aptamer (PULSERAA): A Platform for Detection and Visualization of Virus‐Containing Spots”.

Key:
[1] = target: T1, myoglobin (Mb) (UniProt P02144 2-154); test: dot blot (aptamer blotting); folded in 10 mM K acetate pH 5.0; dot blot: 10 mM sodium phosphate pH 7.0, 10 mM KCl, 0.05% Tween-20, 100 nM oligonucleotide, 25 C, 1 h (block 2% BSA); ELONA: 500 nM aptamer, 25 C, 1 h, TBS-T wash; details: protein: commercial; label: 3'-biotinylated oligonucleotide mixed; mixed or hybrid (3+1) G4 at pH 5.0
T1 sequence: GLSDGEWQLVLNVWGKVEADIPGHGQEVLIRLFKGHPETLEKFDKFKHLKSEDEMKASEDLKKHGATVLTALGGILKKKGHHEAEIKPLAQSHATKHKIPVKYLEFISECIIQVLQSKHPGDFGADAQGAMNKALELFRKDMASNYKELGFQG

[2] = target: T1, myoglobin (Mb); test: dot blot (aptamer blotting); folded in 10 mM K acetate pH 5.0; higher signal than N2 at low Mb; dot blot: 10 mM sodium phosphate pH 7.0, 10 mM KCl, 0.05% Tween-20, 100 nM oligonucleotide, 25 C, 1 h (block 2% BSA); ELONA: 500 nM aptamer, 25 C, 1 h, TBS-T wash; details: protein: commercial; label: 3'-biotinylated oligonucleotide mixed; parallel G4 at pH 7.0 with 10 mM Na+ and 10 mM K+

| Binder | binding result [1] | binding result [2] |
| --- | --- | --- |
| GGGGCTGCTCGGGATTGCGGATATGGTTTGGGCGGGTTGGGCTGGG (structured_DNA) [RBD-46–PEA3-01] | binds |  |
| GGGCGGGTTGGGCTGGGTTTGGGGCTGCTCGGGATTGCGGATATGG (structured_DNA) [PEA3-01–RBD-46] |  | binds |
